Laboratory results from PMC10068899 (Cell Reports, 2023).

B1: mouse p84 (regulatory subunit of PI3Kγ), co-expressed with human p110γ (natural protein)
chain: MESSDVELDFQRSVQAVLRELNTPNPALQSNQGMWRWSLHKKVERNPGKSSILVRILLRELEKAESEDGRRVIIPLLLTLMSVLTKATGIPEDLYHRAYTFCTRLLTLPAPYSTVALDCAIRLKTETAVPGTLYQRTVIAEQNLISELYPYQERVFLFVDPELVSASVCSALLLEIQAAQEQQTPEACMRHVVSHALQAALGEACHTGALNRKLQASSRRVLEYYFHAVVAAIEQVASEDSPSRLGHLEKMEEIYCSLLGPATTRRHCVGDLLQDRLPSIPLPSPYITFHLWTDQEQLWKELVLFLRPRSQLRLSADLDALDLQGFRLDRDLARVSTDSGIERDLPLGSDELPDPSSSEMERAALQRKGGIKKRVWPPDFFMPGSWDGPPGLHRRTGRPSGDGELLPGVSRVHTARVLVLGDDRMLGRLAQAYYRLRKRETKKFCLTPRLSLQLYYIPVLAPQVTGQDPEASRKPELGELASFLGRVDPWYESTVNTLCPAILKLAEMPPYLDTSRTVDPFILDVITYYVRMGTQPIYFQLYKVKIFTSLSHDPTEDIFLTELKVKIQDSKSPKEGSSPRRRGAAEGTGAELSMCYQKALLSHRPREVTVSLRATGLVLKAIPAGDTEVSGFFHCTSPNAASATDCSCLHVSVTEVVKSSNLAGRSFTTSTNTFRTSSIQVQSQDQRLLTLWLDKDGRRTFRDVVRFEVSPCPEPCSRTQKSKTSALNSHGQETEKNMAKPNSLLMPINTFSGIIQ
B2: porcine p101 (regulatory subunit of PI3Kγ), co-expressed with human p110γ (natural protein)
chain: MQPGATTCTEDRIQHALERCLHGLSLSRRSTSWSAGLCLNCWSLQELVSRDPGHFLILLEQILQKTREVQEKGTYDLLAPLALLFYSTVLCTPHFPPDSDLLLKAARTYHRFLTWPVPYCSICQELLTFIDAELKAPGISYQRLVRAEQGLSTRSHRSSTVTVLLLNPVEVQAEFLDVADKLSTPGPSPHSAYITLLLHAFQATFGAHCDLSGLHRRLQSKTLAELEAIFTETAEAQELASGIGDAAEARQWLRTKLQAVGEKAGFPGVLDTAKPGKLRTIPIPVARCYTYSWNQDSFDILQEILLKEQELLQPEILDDEEDEDEEDEEEDLDADGHCAERDSVLSTGSAASHASTLSLASSQASGPTLSRQLLTSFVSGLSDGVDSGYMEDIEESAYERPRRPGGHERRGHRRPGQKFNRIYKLFKSTSQMVLRRDSRSLEGSPDSGPPLRRAGSLCSPLDSPTLPPSRAQGSRSLPQPKLSPQLPGWLLAPASRHQRRRPFLSGDEDPKASTLRVVVFGSDRISGKVVRAYSNLRRLENNRPLLTRFFKLQFFYVPVKRSRGTGTPTSPAPRSQTPPLPTDAPRHPGPAELGAAPWEESTNDISHYLGMLDPWYERNVLGLMHLPPEVLCQSLKAEPRPLEGSPAQLPILADMLLYYCRFAARPVLLQVYQTELTFITGEKTTEIFIHSLELGHSAATRAIKASGPGSKRLGIDGDREAVPLTLQIIYSKGAISGRSRWSNMEKLCTSVNLSKACRQQEELDSSTEALTLNLTEVVKRQTPKSKKGFNQISTSQIKVDKVQIIGSNSCPFAVCLDQDERKILQSVIRCEVSPCYKPEKSSLCPPPQRPSYPPAPATPDLCSLLCLPIMTFSGALP
B3: EE-tagged mouse p84 (for X-ray crystallography) (natural protein)
chain: B1 chain
B4: human p101 (regulatory subunit of PI3Kγ), co-expressed with human p110γ (natural protein)
chain: MQPGATTCTEDRIQHALERCLHGLSLSRRSTSWSAGLCLNCWSLQELVSRDPGHFLILLEQILQKTREVQEKGTYDLLTPLALLFYSTVLCTPHFPPDSDLLLKAASTYHRFLTWPVPYCSICQELLTFIDAELKAPGISYQRLVRAEQGLPIRSHRSSTVTVLLLNPVEVQAEFLAVANKLSTPGHSPHSAYTTLLLHAFQATFGAHCDVPGLHCRLQAKTLAELEDIFTETAEAQELASGIGDAAEARRWLRTKLQAVGEKAGFPGVLDTAKPGKLHTIPIPVARCYTYSWSQDSFDILQEILLKEQELLQPGILGDDEEEEEEEEEVEEDLETDGHCAERDSLLSTSSLASHDSTLSLASSQASGPALSRHLLTSFVSGLSDGMDSGYVEDSEESSSEWPWRRGSQERRGHRRPGQKFIRIYKLFKSTSQLVLRRDSRSLEGSSDTALPLRRAGSLCSPLDEPVSPPSRAQRSRSLPQPKLGTQLPSWLLAPASRPQRRRPFLSGDEDPKASTLRVVVFGSDRISGKVARAYSNLRRLENNRPLLTRFFKLQFFYVPVKRSHGTSPGACPPPRSQTPSPPTDSPRHASPGELGTTPWEESTNDISHYLGMLDPWYERNVLGLMHLPPEVLCQQSLKAEAQALEGSPTQLPILADMLLYYCRFAARPVLLQVYQTELTFITGEKTTEIFIHSLELGHSAATRAIKASGPGSKRLGIDGDREAVPLTLQIIYSKGAISGRSRWSNLEKVCTSVNLNKACRKQEELDSSMEALTLNLTEVVKRQNSKSKKGFNQISTSQIKVDKVQIIGSNSCPFAVCLDQDERKILQSVVRCEVSPCYKPEKSDLSSPPQTPPDLPAQAAPDLCSLLCLPIMTFSGALP
B5: human p84 (regulatory subunit of PI3Kγ), co-expressed with human p110γ (natural protein)
chain: MESSDVELDLQRSVQAVLRELSTQAPALQSNQGMWRWSLHKKVERDPGKSPVLVRILLRELEKAESQDLRHVIIPLLHTVMYVLTKATGITEELYQRIYAFCTRLLTLPTPYCTVALDCAIRLKTEMAVPGTLYQRMVIAEQNLTNELYPYQERVFLFVDPELVSASVCSALLLEIEAAQAQQTPETCMRHVVSHALQAALGEACHAGALHRKLQASPRRTLEHYFHAVVAALEQMASEASPSREGHVERLEEIYCSLLGPAAGRCGGDLVQERPPSIPLPSPYITFHLWTGEEQLWKELVLFLRPRSQLRLSADLEVLDLQGLRPDRELARVSVLSTDSGIERDLPTGADELPAPGSPEMERAGLQRKGGIKKRAWPLDFLMPGSWDGPPGLHRRTGRPSGDGEMLPGVSRLHTARVLVLGDDRMLGRLAQAYHRLRKRETQKFCLTPRLSLQLYYIPVLAPEKPAASRQPELGELATFLGRVDPWYQSNVNTLCPAIHKLAEMPPSLDTSRTVDPFILDVITYYIRMGTQPIYFQIYTVKIFFSDLSQDPTEDIFLIELKVKIQDSKFPKDGFSPRRRGVAEGPGAELSLCYQKALLSHRPREVTVSLRATGLILKAIPASDTEVSGSSHCPLPAAPVTDHTCLNVNVTEVVKSSNLAGKSFSTVTNTFRTNNIQIQSRDQRLLTLSLDKDDQRTFRDVVRFEVAPCPEPCSGAQKSKAPWLNLHGQQEVEAIKAKPKPLLMPINTFSGIVQ

How the values were obtained:
[1] = biological target: human p110γ (catalytic subunit of PI3Kγ), co-expressed with mouse p84 or porcine p101 (human, UniProt P48736 1-1102); test: SEC
Sequence of human p110γ (catalytic subunit of PI3Kγ), co-expressed with mouse p84 or porcine p101 (P48736 whole entry): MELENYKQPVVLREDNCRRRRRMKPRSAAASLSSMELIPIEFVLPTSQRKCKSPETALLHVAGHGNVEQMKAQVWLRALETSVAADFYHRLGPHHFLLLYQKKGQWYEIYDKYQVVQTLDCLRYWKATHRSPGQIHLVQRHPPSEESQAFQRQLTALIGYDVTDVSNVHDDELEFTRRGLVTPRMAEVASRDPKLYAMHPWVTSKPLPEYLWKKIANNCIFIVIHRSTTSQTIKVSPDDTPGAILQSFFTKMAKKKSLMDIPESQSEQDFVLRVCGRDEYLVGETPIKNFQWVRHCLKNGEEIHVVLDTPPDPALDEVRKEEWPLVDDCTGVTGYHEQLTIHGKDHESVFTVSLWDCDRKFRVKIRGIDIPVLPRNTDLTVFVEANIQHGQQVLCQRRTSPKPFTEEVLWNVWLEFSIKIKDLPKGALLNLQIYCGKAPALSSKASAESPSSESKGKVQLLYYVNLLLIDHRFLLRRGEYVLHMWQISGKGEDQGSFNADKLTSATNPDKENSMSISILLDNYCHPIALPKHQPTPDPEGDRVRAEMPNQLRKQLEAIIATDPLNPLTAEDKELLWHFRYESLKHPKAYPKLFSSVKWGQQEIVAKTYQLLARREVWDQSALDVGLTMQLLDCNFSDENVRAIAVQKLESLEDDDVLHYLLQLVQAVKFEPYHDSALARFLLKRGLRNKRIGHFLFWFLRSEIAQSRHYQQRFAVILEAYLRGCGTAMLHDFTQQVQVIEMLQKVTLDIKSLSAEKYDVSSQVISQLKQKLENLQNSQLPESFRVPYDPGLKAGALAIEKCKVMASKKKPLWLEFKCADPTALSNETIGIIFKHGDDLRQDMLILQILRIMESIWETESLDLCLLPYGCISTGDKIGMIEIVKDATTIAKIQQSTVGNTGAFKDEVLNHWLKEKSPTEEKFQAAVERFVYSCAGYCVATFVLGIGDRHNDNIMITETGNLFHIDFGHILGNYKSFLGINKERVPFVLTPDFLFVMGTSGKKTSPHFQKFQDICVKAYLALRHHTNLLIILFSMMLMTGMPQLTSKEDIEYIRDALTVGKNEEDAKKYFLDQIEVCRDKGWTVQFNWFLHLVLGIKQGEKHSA

[2] = biological target: porcine p110γ (for X-ray crystallography) (porcine, UniProt O02697 1-1102); test: crystal structure
Sequence of porcine p110γ (for X-ray crystallography) (O02697 whole entry): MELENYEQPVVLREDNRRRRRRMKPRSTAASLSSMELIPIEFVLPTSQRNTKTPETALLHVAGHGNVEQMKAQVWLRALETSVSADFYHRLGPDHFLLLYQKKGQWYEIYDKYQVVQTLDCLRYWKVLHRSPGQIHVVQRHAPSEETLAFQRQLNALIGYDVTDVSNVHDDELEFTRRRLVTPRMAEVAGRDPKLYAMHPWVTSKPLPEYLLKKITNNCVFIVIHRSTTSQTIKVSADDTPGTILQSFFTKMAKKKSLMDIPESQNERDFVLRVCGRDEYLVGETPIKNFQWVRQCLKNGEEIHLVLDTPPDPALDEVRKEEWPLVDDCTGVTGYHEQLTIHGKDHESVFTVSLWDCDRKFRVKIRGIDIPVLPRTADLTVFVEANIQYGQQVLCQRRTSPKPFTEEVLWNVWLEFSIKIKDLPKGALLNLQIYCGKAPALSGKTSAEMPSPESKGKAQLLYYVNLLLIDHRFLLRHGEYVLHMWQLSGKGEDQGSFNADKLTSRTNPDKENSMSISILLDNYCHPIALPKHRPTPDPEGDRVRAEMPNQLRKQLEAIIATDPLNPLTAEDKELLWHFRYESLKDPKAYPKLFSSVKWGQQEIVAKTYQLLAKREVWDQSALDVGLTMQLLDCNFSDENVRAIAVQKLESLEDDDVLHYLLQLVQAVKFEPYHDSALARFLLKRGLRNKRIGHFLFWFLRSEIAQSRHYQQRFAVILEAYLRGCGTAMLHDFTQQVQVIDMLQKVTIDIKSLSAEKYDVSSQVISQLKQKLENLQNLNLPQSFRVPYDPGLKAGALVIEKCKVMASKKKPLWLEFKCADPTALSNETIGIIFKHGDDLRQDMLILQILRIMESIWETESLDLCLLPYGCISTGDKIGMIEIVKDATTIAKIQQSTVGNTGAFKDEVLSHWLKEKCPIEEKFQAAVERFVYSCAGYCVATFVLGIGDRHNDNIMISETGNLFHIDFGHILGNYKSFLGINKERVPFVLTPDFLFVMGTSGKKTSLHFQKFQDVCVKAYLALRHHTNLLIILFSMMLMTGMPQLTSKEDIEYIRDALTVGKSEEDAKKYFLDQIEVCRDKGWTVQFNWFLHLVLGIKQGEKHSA

[3] = biological target: human p110γ, biGBac construct co-expressed with human p84 or human p101 (human, UniProt P48736 1-1102); test: HDX-MS
Sequence of human p110γ, biGBac construct co-expressed with human p84 or human p101 (P48736 whole entry): as the sequence (P48736 whole entry) above

binding result [1] | binding result [3] | further results | Binder
binds |  |  | B1
binds |  |  | B2
 |  | binding result [2]: binds | B3
 | binds |  | B4
 | binds |  | B5
